Experimental data: US20180142032A1 (Sanofi, published 2018)
Several values for one entry are separate records, joined by “and”; a condition that tells them apart may be missing. Equal values may be shown once.

How the values were obtained:
[1] = target: T1, human LAMP1 at the cell surface (human, UniProt P11279 29-417); assay: flow cytometry, HCT116 stable clones
T1 construct: native on tumour cells (PDX, Colo205, SW480, LS174T) or from the cloned CDS NM_005561.3 in HEK293 and HCT116; signal peptide 1-28 left out; also called huLAMP1; full length human LAMP1
T1 sequence: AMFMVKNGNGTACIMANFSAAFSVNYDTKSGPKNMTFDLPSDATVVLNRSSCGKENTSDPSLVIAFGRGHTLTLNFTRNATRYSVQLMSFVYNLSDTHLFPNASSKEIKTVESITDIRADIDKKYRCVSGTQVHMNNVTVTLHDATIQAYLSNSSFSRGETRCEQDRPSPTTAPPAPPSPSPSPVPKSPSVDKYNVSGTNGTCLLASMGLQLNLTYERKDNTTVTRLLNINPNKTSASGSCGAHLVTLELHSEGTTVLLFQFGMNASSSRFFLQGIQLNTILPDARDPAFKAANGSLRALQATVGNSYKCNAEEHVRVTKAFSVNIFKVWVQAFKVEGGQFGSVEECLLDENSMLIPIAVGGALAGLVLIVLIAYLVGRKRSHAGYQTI
Protocol: (§1) 100 μL/well of goat anti-mouse IgG conjugated with Alexa647 (Invitrogen; # A2135) was added for 45 min at 4° C. and washed three times with PBS 1% BSA. The antibody binding was evaluated after centrifugation and re-suspension of cells by adding 200 μl/well PBS 1% BSA and read using Guava® easyCyte™ 8HT Flow Cytometry System. EC50 values were estimated using BIOST@T-SPEED software.

[2] = target: T2, cynomolgus monkey LAMP1 at the cell surface (cynomolgus monkey, UniProt P11279 29-417 (human entry)); assay: flow cytometry, HCT116 stable clones
T2 construct: also called cynoLAMP1; cynomolgus LAMP1
T2 chain: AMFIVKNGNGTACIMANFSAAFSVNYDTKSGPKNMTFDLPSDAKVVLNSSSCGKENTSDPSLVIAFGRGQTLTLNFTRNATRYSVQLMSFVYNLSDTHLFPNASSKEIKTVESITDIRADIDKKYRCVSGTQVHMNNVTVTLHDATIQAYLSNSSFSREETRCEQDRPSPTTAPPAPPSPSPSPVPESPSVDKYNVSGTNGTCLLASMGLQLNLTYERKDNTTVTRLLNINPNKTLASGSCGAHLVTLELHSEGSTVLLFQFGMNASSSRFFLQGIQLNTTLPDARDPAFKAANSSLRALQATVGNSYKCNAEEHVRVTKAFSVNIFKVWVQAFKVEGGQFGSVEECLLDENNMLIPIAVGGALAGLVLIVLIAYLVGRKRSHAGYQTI
Protocol: as §1

hLAMP1_ΔGYQTI [3] = target: T3, hLAMP1_ΔGYQTI (human, UniProt P11279 29-412); assay: flow cytometry, transfected 293-F cells, experiment 2
T3 construct: also called pXL5626
T3 sequence: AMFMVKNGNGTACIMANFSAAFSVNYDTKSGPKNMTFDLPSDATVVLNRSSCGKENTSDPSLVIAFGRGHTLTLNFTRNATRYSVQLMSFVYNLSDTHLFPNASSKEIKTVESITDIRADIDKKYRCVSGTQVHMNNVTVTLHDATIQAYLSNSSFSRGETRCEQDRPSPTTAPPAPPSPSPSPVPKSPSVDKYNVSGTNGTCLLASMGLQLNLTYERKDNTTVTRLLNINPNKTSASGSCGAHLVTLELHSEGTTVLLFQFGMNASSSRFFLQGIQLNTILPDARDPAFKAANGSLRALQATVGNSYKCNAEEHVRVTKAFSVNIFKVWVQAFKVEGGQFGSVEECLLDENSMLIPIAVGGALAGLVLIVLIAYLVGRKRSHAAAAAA

mLAMP1_hseq6-11_ΔGYQTI = target: T4, mLAMP1_hseq6-11_ΔGYQTI (mouse; human, UniProt P11438 25-369); assay: as above
T4 construct: on cells; also called pXL6041; not shown: murine transmembrane domain and cytoplasmic tail with GYQTI replaced by 5 Ala
T4 chain: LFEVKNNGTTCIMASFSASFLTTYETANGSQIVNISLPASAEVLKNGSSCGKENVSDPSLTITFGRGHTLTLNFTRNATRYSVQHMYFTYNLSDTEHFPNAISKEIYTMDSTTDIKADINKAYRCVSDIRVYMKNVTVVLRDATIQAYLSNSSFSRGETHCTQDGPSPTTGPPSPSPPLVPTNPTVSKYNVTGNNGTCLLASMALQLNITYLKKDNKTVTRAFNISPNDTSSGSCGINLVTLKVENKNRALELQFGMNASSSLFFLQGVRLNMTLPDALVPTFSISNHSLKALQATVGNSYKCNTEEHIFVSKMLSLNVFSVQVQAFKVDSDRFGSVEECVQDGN

[4] = target: T2, cynomolgus monkey LAMP1 at the cell …; assay: flow cytometry, HCT116 stable clones; cynomolgus LAMP1 on recombinant HCT116 stable clones
Protocol: HCT116 cells were infected by a lentiviral vector allowing stable integration of the human or the cynomolgus LAMP1 CDS in genomic DNA of cells. Individual clones with different densities of human or cynomolgus LAMP1 cell surface localization were derived from a pool of HCT116 infected cells. […] 100 μL/well of goat anti-human IgG conjugated with Alexa488 (Invitrogen; # A11013) was added for 1 h at 4° C. and washed two times with PBS 1% BSA. The antibody binding was evaluated after centrifugation and resuspension of cells in 100 μl fixing solution (paraformaldehyde at 4% in PBS). Samples were read using Galaxy® Flow Cytometry System (Partec). EC50 values were estimated using BIOST@T-SPEED software.

[5] = target: T1, human LAMP1 at the cell surface; assay: cell-based or functional assay
hLAMP1_ΔGYQTI [6] = target: T3, hLAMP1_ΔGYQTI; assay: flow cytometry, transfected 293-F cells

B1: MAb2 (antibody, mouse IgG1, kappa)
heavy: QVQLQQSAAELARPGASVKMSCKASGYTFTSYTMHWVKQRPGQGLEWIGYFNPSSGYPEYNQKFKDKTTLTADKSSNTAFIQLNSLTSEDSAVYYCSRGYYYGSRGYALDFWGQGASVTVSSAKTTPPSVYPLAPGSAAQTNSMVTLGCLVKGYFPEPVTVTWNSGSLSSGVHTFPAVLQSDLYTLSSSVTVPSSTWPSETVTCNVAHPASSTKVDKKIVPRDCGCKPCICTVPEVSSVFIFPPKPKDVLTITLTPKVTCVVVDISKDDPEVQFSWFVDDVEVHTAQTQPREEQFNSTFRSVSELPIMHQDWLNGKEFKCRVNSAAFPAPIEKTISKTKGRPKAPQVYTIPPPKEQMAKDKVSLTCMITDFFPEDITVEWQWNGQPAENYKNTQPIMDTDGSYFVYSKLNVQKSNWEAGNTFTCSVLHEGLHNHHTEKSLSHSPGK
light: NIVLTQSPVSLAVSLGQRATISCRASESVDINGNTFMHWYQQKPGQSPKLVIYAASNIESGVPARFSGSGSSTDFTFTIDPVEADDVATYYCQQNIEDPWTFGGGTKVEIKRADAAPTVSIFPPSSEQLTSGGASVVCFLNNFYPKDINVKWKIDGSERQNGVLNSWTDQDSKDSTYSMSSTLTLTKDEYERHNSYTCEATHKTSTSPIVKSFNRNEC
notes: murine monoclonal IgG, kappa, from hybridoma; also called murine MAb2
EC50 [1]: 6.3 nM
EC50 [2]: 6.6 nM

B2: MAb1 (antibody, mouse IgG2a, kappa)
heavy: QVQLQQSGAELVKPGASVKMSCKASGYIFTNYNIHWVKKSPGQGLEWIGAIYPGNGDAPYSQKFKDKATLTADKSSSTTYMQLSRLTSEDSAVYYCVRANWDVAFAYWGQGTLVSVSAAKTTAPSVYPLAPVCGDTTGSSVTLGCLVKGYFPEPVTLTWNSGSLSSGVHTFPAVLQSDLYTLSSSVTVTSSTWPSQSITCNVAHPASSTKVDKKIEPRGPTIKPCPPCKCPAPNLLGGPSVFIFPPKIKDVLMISLSPIVTCVVVDVSEDDPDVQISWFVNNVEVHTAQTQTHREDYNSTLRVVSALPIQHQDWMSGKEFKCKVNNKDLPAPIERTISKPKGSVRAPQVYVLPPPEEEMTKKQVTLTCMVTDFMPEDIYVEWTNNGKTELNYKNTEPVLDSDGSYFMYSKLRVEKKNWVERNSYSCSVVHEGLHNHHTTKSFSRTPGK
light: DIQMTQSPPSLSASLGGKVTITCKASQDIDRYMAWYQDKPGKGPRLLIHDTSTLQPGIPSRFSGSGSGRDYSFSISNLEPEDIATYYCLQYDNLWTFGGGTKLEIKRADAAPTVSIFPPSSEQLTSGGASVVCFLNNFYPKDINVKWKIDGSERQNGVLNSWTDQDSKDSTYSMSSTLTLTKDEYERHNSYTCEATHKTSTSPIVKSFNRNEC
notes: murine monoclonal IgG, kappa, from hybridoma; also called murine MAb1
mean fluorescence (hLAMP1_ΔGYQTI [3]): 551
mean fluorescence (mLAMP1_hseq6-11_ΔGYQTI): 211
EC50 [4]: 5.5 nM

B3: huMAb1_1 (antibody, human IgG1, kappa)
heavy: not shown
light: DIQMTQSPSSLSASVGDRVTITCKASQDIDRYMAWYQDKPGKAPRLLIHDTSTLQSGVPSRFSGSGSGRDYTLTISNLEPEDFATYYCLQYDNLWTFGGGTKVEIKRTVAAPSVFIFPPSDEQLKSGTASVVCLLNNFYPREAKVQWKVDNALQSGNSQESVTEQDSKDSTYSLSSTLTLSKADYEKHKVYACEVTHQGLSSPVTKSFNRGEC
notes: humanized, VH1-huIgG1 and VL1-huCk
ADCP EC50, 3/1, batch 67130713495 [5]: 0.47 nM and 0.36 nM
ADCP EC50, 3/1, batch 67131354967 [5]: 0.5 nM
ADCP EC50, 3/1, batch 67131617470 [5]: 0.56 nM
ADCP EC50, 6/1, batch 67130713495 [5]: 0.98 nM and 0.34 nM
ADCP EC50, macrophages/target 3/1, batch 67131617438 [5]: 0.28 nM
mean fluorescence (hLAMP1_ΔGYQTI [6]): 864
